Source: article PMC3279587

Key:
Assay in all cases: EMSA
GST-Arx 286-430 L343Q = GST-Arx 286-430 L343Q (Mus musculus, UniProt O35085 288-432, L345Q)
GST-Arx 214-430 [1] = biological target: T1, GST-Arx 214-430 (Mus musculus, UniProt O35085 216-432)
Sumo-Arx (full-length) [2] = biological target: T2, Sumo-Arx (full-length) (Mus musculus, UniProt O35085 1-564)
His-Arx 214-430 [3] = biological target: T3, His-Arx 214-430 (Mus musculus, UniProt O35085 216-432)
Sumo-Arx (full-length) [4] = biological target: T2, Sumo-Arx (full-length); remark: listed apart in the source
GST-Arx 286-430 = GST-Arx 286-430 (Mus musculus, UniProt O35085 288-432)
Sequence of GST-Arx 286-430 (O35085 288-432): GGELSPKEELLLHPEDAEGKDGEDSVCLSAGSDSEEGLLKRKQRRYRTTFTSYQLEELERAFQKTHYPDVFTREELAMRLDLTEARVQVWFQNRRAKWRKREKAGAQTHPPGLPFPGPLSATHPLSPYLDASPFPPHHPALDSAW

GST-Arx 214-430 [5] = biological target: T1, GST-Arx 214-430; remark: listed apart in the source
His-Arx 214-430 [6] = biological target: T3, His-Arx 214-430; remark: listed apart in the source

T2 sequence (O35085 whole entry): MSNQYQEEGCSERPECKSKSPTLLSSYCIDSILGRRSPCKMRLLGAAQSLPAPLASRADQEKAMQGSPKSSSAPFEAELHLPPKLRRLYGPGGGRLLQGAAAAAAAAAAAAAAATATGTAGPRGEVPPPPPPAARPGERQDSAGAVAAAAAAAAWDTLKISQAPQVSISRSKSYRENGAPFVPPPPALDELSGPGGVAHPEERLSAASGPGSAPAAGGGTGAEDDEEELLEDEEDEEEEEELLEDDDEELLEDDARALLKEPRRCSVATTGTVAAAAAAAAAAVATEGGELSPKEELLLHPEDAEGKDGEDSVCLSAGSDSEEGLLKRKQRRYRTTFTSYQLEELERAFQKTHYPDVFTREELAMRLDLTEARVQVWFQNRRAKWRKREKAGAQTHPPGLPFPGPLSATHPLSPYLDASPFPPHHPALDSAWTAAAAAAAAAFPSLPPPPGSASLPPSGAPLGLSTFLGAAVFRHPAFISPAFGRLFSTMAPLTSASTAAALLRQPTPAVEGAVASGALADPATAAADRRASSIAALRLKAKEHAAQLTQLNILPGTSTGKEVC
T1 sequence (O35085 216-432): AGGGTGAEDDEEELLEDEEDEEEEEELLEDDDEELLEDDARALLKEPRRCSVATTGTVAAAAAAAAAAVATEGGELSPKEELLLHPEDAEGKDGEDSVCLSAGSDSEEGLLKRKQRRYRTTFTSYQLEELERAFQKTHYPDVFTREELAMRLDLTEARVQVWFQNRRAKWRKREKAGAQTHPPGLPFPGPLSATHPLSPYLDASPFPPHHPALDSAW
T3 sequence (O35085 216-432): as above
Sequence of GST-Arx 286-430 L343Q (O35085 288-432 L345Q): as the sequence (O35085 288-432) above, with L58Q counted along it

B1: Lmo1 (dsDNA)
DNA 1: GTAATGAATTGATTTAATTAACAGGGGAGTCTGA
DNA 2: TCAGACTCCCCTGTTAATTAAATCAATTCATTAC
GST-Arx 286-430 L343Q
  binding result: no binding

B2: N2 (dsDNA)
DNA 1: GTCTGGCAATTAATATATTGCATTTGC
DNA 2: GCAAATGCAATATATTAATTGCCAGAC
GST-Arx 214-430 [1]
  binding result: no binding
Sumo-Arx (full-length) [2]
  binding result: no binding
His-Arx 214-430 [3]
  binding result: no binding

B3: N11 (dsDNA)
DNA 1: GTCTGGCAGTTAATTCGGCTTAGTAGC
DNA 2: GCTACTAAGCCGAATTAACTGCCAGAC
GST-Arx 214-430 [1]
  binding result: no binding
His-Arx 214-430 [3]
  binding result: no binding
Sumo-Arx (full-length) [4]
  binding signal: 100 % of strongest probe for this protein

B4: N9 (dsDNA)
DNA 1: GTCTGGCTCCTAATTAGTTCGATTAGC
DNA 2: GCTAATCGAACTAATTAGGAGCCAGAC
GST-Arx 286-430
  binding signal: 95 % of strongest probe for this protein
GST-Arx 214-430 [5]
  binding signal: 100 % of strongest probe for this protein
Sumo-Arx (full-length) [4]
  binding signal: 17 % of strongest probe for this protein
His-Arx 214-430 [6]
  binding signal: 97 % of strongest probe for this protein

B5: N30 (dsDNA)
DNA 1: GTCTGGCCTCTAATTACGCCTAATTGC
DNA 2: GCAATTAGGCGTAATTAGAGGCCAGAC
GST-Arx 286-430
  binding signal: 100 % of strongest probe for this protein
GST-Arx 214-430 [5]
  binding signal: 86 % of strongest probe for this protein
Sumo-Arx (full-length) [4]
  binding signal: 38 % of strongest probe for this protein
His-Arx 214-430 [6]
  binding signal: 100 % of strongest probe for this protein

B6: N25 (dsDNA)
DNA 1: GTCTGGCCATTAATGATATCAATTAGC
DNA 2: GCTAATTGATATCATTAATGGCCAGAC
Sumo-Arx (full-length) [2]
  binding result: no binding
GST-Arx 286-430
  binding signal: 81.6 % of strongest probe for this protein
GST-Arx 214-430 [5]
  binding signal: 33.6 % of strongest probe for this protein
His-Arx 214-430 [6]
  binding signal: 46 % of strongest probe for this protein
